Measured values taken from paper PMC13316113, “RNA-induced PRC2 inhibition depends on the sequence of bound RNA”.

What was measured:
[1] = target: T1, six-subunit PRC2 (EZH2-EED-SUZ12-RBAP48-AEBP2-JARID2) (UniProt Q15910-2;O75530;Q15022;Q09028;Q6ZN18-2;Q92833 …); experiment: EMSA; 100 mM KCl; EMSA: 50 mM Tris-HCl pH 7.5 (25 C), 100 mM KCl (or LiCl), 2.5 mM MgCl2, 0.1 mM ZnCl2, 2 mM 2-mercaptoethanol, 0.05 mg/ml BSA, 0.05 mg/ml yeast tRNA, 5% glycerol, 30 C 30 min; conditions: protein: recombinant, tags: His (EZH2), Strep-GFP (AEBP2, JARID2), TEV treated, AEBP2 retains 7 extra N-terminal aa, copies: 1;1;1;1;1;1, label: 32P 5' (EMSA)
[2] = target: T1, six-subunit PRC2 …; experiment: as above; conditions: protein: recombinant, tags: His (EZH2), Strep-GFP (AEBP2, JARID2), TEV treated, AEBP2 retains 7 extra N-terminal aa, copies: 1;1;1;1;1;1, label: 32P 5' (EMSA); remark: listed apart in the source
[3] = target: T1, six-subunit PRC2 …; experiment: UV crosslinking; very low crosslinking efficiency despite saturated binding; EMSA: 50 mM Tris-HCl pH 7.5 (25 C), 100 mM KCl (or LiCl), 2.5 mM MgCl2, 0.1 mM ZnCl2, 2 mM 2-mercaptoethanol, 0.05 mg/ml BSA, 0.05 mg/ml yeast tRNA, 5% glycerol, 30 C 30 min; conditions: protein: recombinant; tags: His (EZH2), Strep-GFP (AEBP2, JARID2); TEV treated; AEBP2 retains 7 extra N-terminal aa; copies: 1;1;1;1;1;1; label: 32P; G4
[4] = target: six-subunit PRC2 AEBP2del261-389 (UniProt Q15910-2;O75530;Q15022;Q09028;Q6ZN18-2;Q92833 …, internal_change); experiment: EMSA; P = 0.05 vs WT; EMSA: 50 mM Tris-HCl pH 7.5 (25 C), 100 mM KCl (or LiCl), 2.5 mM MgCl2, 0.1 mM ZnCl2, 2 mM 2-mercaptoethanol, 0.05 mg/ml BSA, 0.05 mg/ml yeast tRNA, 5% glycerol, 30 C 30 min; conditions: protein: recombinant; copies: 1;1;1;1;1;1; label: 32P 5' (EMSA); no G4

UUUUUUUUUUUUUUUUUUUUUUUUUUUUUUUUUUUUUUUUUUUUUUUUUU (ssRNA) [Poly(U)] gave a Kd ([1]; single strand) of 28 ± 4 nM.

In the case of UUUUUUUUUUCUCUUUCUCUCCUUCUCUUCCUCUCUCUCCUCUUUCUCUC (ssRNA) [P10], the binding signal ([2]; single strand) is reported as ~4 fold weaker than TERRA/Poly(U)/Poly(C).

B1: 2G4 (structured_RNA)
RNA: AAAAAAAAAAGGGAAGGGAAGGGAAGGGAACAACAACAACAACAAGGGAAGGGAAGGGAAGGGAA
B1: binds [3].

For AAAAAAAAAAGAGAGAGAUUAGGGUUAGGGUUAGGGUUAGGGAGAGAGAG (structured_RNA) [TERRA], the Kd ([1]; single intramolecular G4 in K+) was 18 ± 9 nM.

With AAAAAAAAAAGUGUGUGUGUGUGUGUGUGUGUGUGUGUGUGUGUGUGUGU (structured_RNA) [pUG-fold] the binding signal ([2]; atypical G4 (pUG-fold: three G quartets and one U quartet)) was ~2 fold weaker than TERRA/Poly(U)/Poly(C).

AAAAAAAAAAGAGAGAGAUGAGUGUGAGUGUGAGUGUGAGUGAGAGAGAG (ssRNA) [TERRAmut] was tested, and the Kd ([1]; no G4) was 66 ± 15 nM and the Kd [4] was 112 ± 24 nM.
